Measurements as given in US20240287172A1 (SCIRHOM, published 2024).

T1: hiR2-FL-R543A-T7 (human, UniProt Q6PJF5 1-856)
T1 sequence: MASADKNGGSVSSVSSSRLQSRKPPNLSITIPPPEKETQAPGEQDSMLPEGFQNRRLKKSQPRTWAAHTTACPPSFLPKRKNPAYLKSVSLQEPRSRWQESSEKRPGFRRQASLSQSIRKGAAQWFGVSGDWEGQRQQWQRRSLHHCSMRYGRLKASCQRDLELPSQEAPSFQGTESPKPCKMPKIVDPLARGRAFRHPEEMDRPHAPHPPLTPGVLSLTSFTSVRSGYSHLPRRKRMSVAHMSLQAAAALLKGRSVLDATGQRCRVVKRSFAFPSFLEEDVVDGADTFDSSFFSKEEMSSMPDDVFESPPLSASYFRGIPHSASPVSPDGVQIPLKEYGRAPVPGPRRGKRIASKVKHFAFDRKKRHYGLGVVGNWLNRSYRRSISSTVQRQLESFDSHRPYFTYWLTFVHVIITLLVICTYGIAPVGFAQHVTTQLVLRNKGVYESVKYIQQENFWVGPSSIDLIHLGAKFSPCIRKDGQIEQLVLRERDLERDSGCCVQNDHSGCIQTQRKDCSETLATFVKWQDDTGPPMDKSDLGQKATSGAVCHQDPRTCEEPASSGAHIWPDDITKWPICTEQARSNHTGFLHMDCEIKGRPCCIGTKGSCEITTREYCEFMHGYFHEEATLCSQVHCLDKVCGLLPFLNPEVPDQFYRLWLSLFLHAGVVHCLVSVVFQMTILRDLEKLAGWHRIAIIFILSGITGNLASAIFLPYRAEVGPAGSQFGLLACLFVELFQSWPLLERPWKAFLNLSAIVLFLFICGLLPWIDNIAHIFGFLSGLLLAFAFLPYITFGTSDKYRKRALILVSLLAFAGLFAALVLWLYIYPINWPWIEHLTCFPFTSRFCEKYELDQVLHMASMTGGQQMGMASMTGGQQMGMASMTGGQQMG

T2: hiR2-FL-C508A-T7 (human, UniProt Q6PJF5 1-856)
T2 construct: reduced surface expression reported
T2 sequence: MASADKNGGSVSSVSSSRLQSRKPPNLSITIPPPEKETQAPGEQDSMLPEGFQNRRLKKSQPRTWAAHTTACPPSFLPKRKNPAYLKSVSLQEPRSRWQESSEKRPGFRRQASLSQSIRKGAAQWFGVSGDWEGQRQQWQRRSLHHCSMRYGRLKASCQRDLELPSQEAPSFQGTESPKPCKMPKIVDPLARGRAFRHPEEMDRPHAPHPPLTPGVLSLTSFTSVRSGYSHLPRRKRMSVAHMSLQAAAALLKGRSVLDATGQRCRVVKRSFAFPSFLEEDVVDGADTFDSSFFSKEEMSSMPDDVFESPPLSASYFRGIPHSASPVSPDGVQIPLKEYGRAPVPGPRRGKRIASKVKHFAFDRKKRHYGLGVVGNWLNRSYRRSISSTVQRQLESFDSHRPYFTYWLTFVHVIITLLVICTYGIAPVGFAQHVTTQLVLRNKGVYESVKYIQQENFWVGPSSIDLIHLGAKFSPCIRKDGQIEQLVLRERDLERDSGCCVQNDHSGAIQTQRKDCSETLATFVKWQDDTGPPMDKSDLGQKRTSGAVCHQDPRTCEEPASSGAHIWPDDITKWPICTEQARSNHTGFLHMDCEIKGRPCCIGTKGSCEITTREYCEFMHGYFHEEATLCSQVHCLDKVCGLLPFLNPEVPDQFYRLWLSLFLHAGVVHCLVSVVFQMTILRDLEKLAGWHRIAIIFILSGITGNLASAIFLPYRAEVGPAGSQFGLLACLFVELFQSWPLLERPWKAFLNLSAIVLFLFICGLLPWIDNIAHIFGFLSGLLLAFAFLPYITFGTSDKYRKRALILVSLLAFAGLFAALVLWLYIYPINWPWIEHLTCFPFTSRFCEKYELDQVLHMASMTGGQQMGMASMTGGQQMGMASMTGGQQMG

B1: antibody 34 (antibody, V domains shown)
VH: QVTLKESGPGILQPSQTLSLTCSFSGFSLSTFSLGVGWIRQSSGKGLEWLAHIWWDDEKYYNPALKSRLTISKDTSKNQVFLKIANVDAADTATYYCARAYYSKSYYALDYWGQGTSVTVSS
VL: DIQMTQSPSSLSASLGERVSLTCRASQEISGYLSWLQQKPDGTIKRLIYAASTLDSGVPKRFSGSRSGSDYSLAISSLESEDFADYYCLQYANFPFTFGSGTKLEIK
notes: mouse IgG, kappa light chain; also called clone #34; purified antibody 34
B2: antibody 5 (antibody, V domains shown)
VH: QVTLKESGPGILQPSQTLSLTCSFSGFSLSTFGMGVGWIRQPSGKGLEWLAHIWWDDEKYYNSALKSRLTISKATSKNQAFLKIANVDTADTATYYCARISNYGSNYWYFNVWGTGTTVTVSS
VL: QVVLTQSPALMSASPGEKVTMTCSAGSSVSCMYWYQQKPGSSPRVLIYDTSNLASGVPARFTGSGSGTSYSLTISRMEAEDAASYYCQQWNSYPLTFGAGTKLELK
notes: mouse IgG, kappa light chain; also called clone #5; purified antibody 5
B3: antibody 43 (antibody, V domains shown)
VH: QVALKESGPGILQPSQTLSLTCSFSGFSLSTFGMGVGWIRQSSGKGLEWLANIWWDDDKYYNPALKSRLTISKDASKNQAFLKIANVDTADTATYYCARIGNYGSNYWYFDVWGTGTTVTVSS
VL: QIVLTQSPAIMSASPGERVTMTCSANSRISYMYWYQQKPGSSPRLLIYDTSNLASGVPVRFSGSGSGTSYSLTISRMEAEDAATYNCQQWSSYPLTFGAGTKLELK
notes: mouse IgG, kappa light chain; also called clone #43; purified antibody 43
B4: antibody 44 (antibody, V domains shown)
VH: QVTLKESGPGILQPSQTLSLTCSFSGFSLSTFGMGVGWIRQPSEKGLEWLAHIWWDDDKYYNPALKSRLTISKDTSKNQIFLKITNVDTAETATYYCSRIGNYGSNYWYFDVWGTGTTVTVSS
VL: QIVLTQSPAVMSASPGEKVTMTCTASSSVYYMYWYQQTPGSSPRLLIYDTSNLASGVPVRFSGSGSGTSYSLTISRMEAEDAATYYCQQWNTYPLTFGAGTKLELK
notes: mouse IgG, kappa light chain; also called clone #44; purified antibody 44
B5: antibody 42 (antibody, V domains shown)
VH: QVTLKESGPGILQPSQTLSLTCSLSGFSLSTFGRGVGWIRQPSGKGLEWLAHIWWDDEKYYNPALKSRLTISKDTSKNQVFLRIANVDTADTATYYCARIQNYGSNYWYFDVWGTGTTVTVSS
VL: LIVLTQSPAIMSASPGEKVTMTCGATSRISYMFWYQQKPGSSPRVLIYDTSNLASGVPVRFSGSGSGTSYSLTISRVEAEDVATYYCQQWNSYPLTFGAGTKLELK
notes: mouse IgG, kappa light chain; also called clone #42; purified antibody 42
B6: antibody 22 (antibody, V domains shown)
VH: QVTLKESGPGILQPSQTLSLTCSFSGFSLSTFGMGVGWIRQPSGKGLEWLAHIWWDDEKYYNSALKSRLTISKATSKNQVFLKIANVDTADTATYYCARISNYGSNYWYFNVWGTGTTVTVSS
VL: QVVLTQSPALMSASPGEKVTMTCSAGSSVSYMYWYQQKPGSSPRVLIYDTSNLASGVPARFTGSGSGTSYSLTISRMEAEDAATYYCQQWNSYPLTFGAGTKLELK
notes: mouse IgG, kappa light chain; also called clone #22; purified antibody 22
B7: antibody 3 (antibody, V domains shown)
VH: QVTLKESGPGILQPSQTLSLTCSFSGFSLTTFAMGIGWVRQPSGKGLEWLAHIWWDGEKYNNPVLKSRLTISKDTSKNQVFLRIANVDTPDTATYYCARISSIYYIIDNWGQGTSVTVSS
VL: DIVLTQSPATLSVTPGHSVSLSCRASQSISNNLHWYQKKSHESPRLLIKYVSQSISGIPSRFSGSGSGTDFTLSINSVETEDFGMYFCQQSYNWPLTFGAGTKLELK
notes: mouse IgG, kappa light chain; also called clone #3; purified antibody 3

What was measured:
hiR2-FL-R543A-T7 = target: T1, hiR2-FL-R543A-T7; test: FACS on MEF-DKO cells expressing the variant, 3 µg/ml antibody
Experimental: (§1) To pellet cells and remove supernatants, the plates were centrifuged at 1,500 rpm and 4° C. for 3 minutes. For primary staining, cells were resuspended in 100 μl per well of either FACS buffer alone (controls) or the purified antibodies 3, 5, 16, 22, 34, 42, 43, 44, 48, and 50 of the invention at 3 μg/ml in FACS buffer and incubated on ice for 1 hour. Afterwards, plates were centrifuged at 1,500 rpm and 4° C. for 3 minutes and washed twice with 200 μl per well of FACS buffer. For secondary staining, cells were spun down and resuspended in 100 μl per well of PE-conjugated goat anti-mouse IgG F(ab′)2 detection fragment (Dianova, Germany) diluted 1:100 in FACS buffer. Protected from light, the cell suspensions were incubated on ice for 1 hour. Plates were then centrifuged at 1,500 rpm and 4° C. for 3 minutes and washed three times with 200 μl per well of FACS buffer. Finally, cells were resuspended in 150 μl per well of FACS buffer and analyzed using a BD Accuri™ C6 Plus flow cytometer (Becton Dickinson, Germany).

hiR2-FL-C508A-T7 = target: T2, hiR2-FL-C508A-T7; test: as above
Experimental: as §1

Binder	loss of binding vs wild type (hiR2-FL-R543A-T7) [%]	loss of binding vs wild type (hiR2-FL-C508A-T7) [%]
B1	≥ 95	≥ 30
B2	≥ 60	≥ 30
B3	≥ 95	≥ 30
B4	≥ 95	≥ 30
B5	≥ 60	≥ 30
B6	≥ 60	≥ 30
B7	≥ 30	–
